The target of one experiment is SARS-CoV RBD protein (SARS-CoV, UniProt P59594). Description: cell-based or functional assay.
Another experiment addresses RaTG13 RBD protein (Bat coronavirus RaTG13, UniProt A0ABF7PLN6). Description: ELISA. To be noted: both partners purified.

B1: GW01 (antibody, V domains shown)
VH: EVQLVESGGGVVQPGGSLRLSCAASGFRFDDHAMHWVRQAPGKGLEWVSVISGDGGSTYYADSVKGRFSISRDDSKNSLYLQMNSLRTEDTALYYCAKDRSYGPPDVFNYEYGMDVWGQGTTVTVSS
VL: not shown
notes: also called mAb GW01; antibody GW01
For B1, the “IC50 of neutralisation of pseudotyped SARS-CoV on Huh-7 cells” value with SARS-CoV RBD protein stood at 0.0193 µg/mL. Further, the binding result with RaTG13 RBD protein is “binds”.
